# Measured values taken from US20160109449A1 (JULIUS MAXIMILIANS UNIVERSITAET WUERZBURG, published 2016).
# T1: IsaA oligopeptide SEQ ID NO: 15 (Staphylococcus aureus)
# T1 construct: Synthetic 15-mer of IsaA, spotted on a glass slide
# T1 peptide: HQAHAAEVNVDQAHL
# T2: IsaA oligopeptide SEQ ID NO: 18 (Staphylococcus aureus)
# T2 construct: Synthetic 15-mer of IsaA, spotted on a glass slide
# T2 peptide: AHLVDLAHNHQDQLN
# T3: IsaA oligopeptide SEQ ID NO: 19 (Staphylococcus aureus)
# T3 construct: Synthetic 15-mer of IsaA, spotted on a glass slide
# T3 peptide: DLAHNHQDQLNAAPI
# T4: IsaA oligopeptide SEQ ID NO: 21 (Staphylococcus aureus)
# T4 construct: Synthetic 15-mer of IsaA, spotted on a glass slide
# T4 peptide: QLNAAPIKDGAYDIH
# T5: IsaA oligopeptide SEQ ID NO: 22 (Staphylococcus aureus)
# T5 construct: Synthetic 15-mer of IsaA, spotted on a glass slide
# T5 peptide: APIKDGAYDIHFVKD
# T6: IsaA oligopeptide SEQ ID NO: 23 (Staphylococcus aureus)
# T6 construct: Synthetic 15-mer of IsaA, spotted on a glass slide
# T6 peptide: DGAYDIHFVKDGFQY
# T7: IsaA oligopeptide SEQ ID NO: 24 (Staphylococcus aureus)
# T7 construct: Synthetic 15-mer of IsaA, spotted on a glass slide
# T7 peptide: DIHFVKDGFQYNFTS
# T8: IsaA oligopeptide SEQ ID NO: 25 (Staphylococcus aureus)
# T8 construct: Synthetic 15-mer of IsaA, spotted on a glass slide
# T8 peptide: VKDGFQYNFTSNGTT
# T9: IsaA oligopeptide SEQ ID NO: 26 (Staphylococcus aureus)
# T9 construct: Synthetic 15-mer of IsaA, spotted on a glass slide
# T9 peptide: FQYNFTSNGTTWSWS
# T10: IsaA oligopeptide SEQ ID NO: 32 (Staphylococcus aureus)
# T10 construct: Synthetic 15-mer of IsaA, spotted on a glass slide
# T10 peptide: GFSNVAGADYTTSYN
# T11: IsaA oligopeptide SEQ ID NO: 34 (Staphylococcus aureus)
# T11 construct: Synthetic 15-mer of IsaA, spotted on a glass slide
# T11 peptide: DYTTSYNQGSDVQSV
# T12: IsaA oligopeptide SEQ ID NO: 38 (Staphylococcus aureus)
# T12 construct: Synthetic 15-mer of IsaA, spotted on a glass slide
# T12 peptide: YNAQSSNSNVEAVSA
# T13: IsaA oligopeptide SEQ ID NO: 39 (Staphylococcus aureus)
# T13 construct: Synthetic 15-mer of IsaA, spotted on a glass slide
# T13 peptide: SSNSNVEAVSAPTYH
# T14: IsaA oligopeptide SEQ ID NO: 42 (Staphylococcus aureus)
# T14 construct: Synthetic 15-mer of IsaA, spotted on a glass slide
# T14 peptide: TYHNYSTSTTSSSVR
# T15: IsaA oligopeptide SEQ ID NO: 43 (Staphylococcus aureus)
# T15 construct: Synthetic 15-mer of IsaA, spotted on a glass slide
# T15 peptide: YSTSTTSSSVRLSNG
# T16: IsaA oligopeptide SEQ ID NO: 44 (Staphylococcus aureus)
# T16 construct: Synthetic 15-mer of IsaA, spotted on a glass slide
# T16 peptide: TTSSSVRLSNGNTAG
# T17: IsaA oligopeptide SEQ ID NO: 47 (Staphylococcus aureus)
# T17 construct: Synthetic 15-mer of IsaA, spotted on a glass slide
# T17 peptide: TAGATGSSAAQIMAQ
# T18: IsaA oligopeptide SEQ ID NO: 48 (Staphylococcus aureus)
# T18 construct: Synthetic 15-mer of IsaA, spotted on a glass slide
# T18 peptide: TGSSAAQIMAQRTGV
# T19: IsaA oligopeptide SEQ ID NO: 50 (Staphylococcus aureus)
# T19 construct: Synthetic 15-mer of IsaA, spotted on a glass slide
# T19 peptide: MAQRTGVSASTWAAI
# T20: IsaA oligopeptide SEQ ID NO: 51 (Staphylococcus aureus)
# T20 construct: Synthetic 15-mer of IsaA, spotted on a glass slide
# T20 peptide: TGVSASTWAAIIARE
# T21: IsaA oligopeptide SEQ ID NO: 53 (Staphylococcus aureus)
# T21 construct: Synthetic 15-mer of IsaA, spotted on a glass slide
# T21 peptide: AAIIARESNGQVNAY
# T22: IsaA oligopeptide SEQ ID NO: 54 (Staphylococcus aureus)
# T22 construct: Synthetic 15-mer of IsaA, spotted on a glass slide
# T22 peptide: ARESNGQVNAYNPSG
# T23: IsaA oligopeptide SEQ ID NO: 58 (Staphylococcus aureus)
# T23 construct: Synthetic 15-mer of IsaA, spotted on a glass slide
# T23 peptide: SGLFQTMPGWGPTNT
# T24: IsaA oligopeptide SEQ ID NO: 59 (Staphylococcus aureus)
# T24 construct: Synthetic 15-mer of IsaA, spotted on a glass slide
# T24 peptide: QTMPGWGPTNTVDQQ
# T25: IsaA oligopeptide SEQ ID NO: 62 (Staphylococcus aureus)
# T25 construct: Synthetic 15-mer of IsaA, spotted on a glass slide
# T25 peptide: DQQINAAVKAYKAQG
# T26: IsaA oligopeptide SEQ ID NO: 63 (Staphylococcus aureus)
# T26 construct: Synthetic 15-mer of IsaA, spotted on a glass slide
# T26 peptide: NAAVKAYKAQGLGAW
# T27: IsaA oligopeptide SEQ ID NO: 64 (Staphylococcus aureus)
# T27 construct: Synthetic 15-mer of IsaA, spotted on a glass slide
# T27 peptide: AVKAYKAQGLGAWGF
# T28: IsaA oligopeptide SEQ ID NO: 11 (Staphylococcus aureus)
# T28 construct: Synthetic 15-mer of IsaA, spotted on a glass slide
# T28 peptide: SLAVALGVTGYAAGT
# T29: IsaA oligopeptide SEQ ID NO: 12 (Staphylococcus aureus)
# T29 construct: Synthetic 15-mer of IsaA, spotted on a glass slide
# T29 peptide: ALGVTGYAAGTGHQA
# B1: monoclonal antibody MAB-UK-66 secreted by hybridoma cell line DSM ACC2987 (antibody, V domains shown)
# VH: DVKLVESGGGLVKLGGSLKLSCSASGFTFSNYYMSWVRQTPEKRLELVADINGNGGSTYYPDTVKGRFTISRDNAKNTLYLQMSSLKSEDTALYYCVRRGGYYALDYWGQGTTVTVSS
# VL: DVVMTQTPLSLPVSLGDQASISCRSSQSLVHINGNTYLHWYLQKPGQSPKLLIYRVSNRFSGVPDRFSGSGSGTDFTLKISRVEAEDLGVYFCSQSTHVPWTFGGGTKLELKR
# notes: Monoclonal mouse antibody from a hybridoma; Detected with anti-mouse IgG; also called antibodies secreted by cell line DSM ACC2987; anti-IsaA MAB
# Assays:
# Test in all cases: peptide array on glass slide, fluorescent secondary antibody;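 note: binding of a hybridoma-secreted monoclonal antibody to immobilized oligopeptide spots, compared with control antibodies, detected through a fluorescence-labeled secondary antibody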
# [1] = biological target: T1, IsaA oligopeptide SEQ ID NO: 15
# Description: (§1) Each oligopeptide was immobilized on a small spot on a glass side. Binding of the monoclonal antibodies secreted by the hybridoma cell line DSM ACC2987 and of control antibodies to these spots was examined upon incubation with these antibodies by binding of fluorescence labeled secondary antibodies and detecting fluorescence intensities.
# [2] = biological target: T2, IsaA oligopeptide SEQ ID NO: 18
# Description: as §1
# [3] = biological target: T3, IsaA oligopeptide SEQ ID NO: 19
# Description: as §1
# [4] = biological target: T4, IsaA oligopeptide SEQ ID NO: 21
# Description: as §1
# [5] = biological target: T5, IsaA oligopeptide SEQ ID NO: 22
# Description: as §1
# [6] = biological target: T6, IsaA oligopeptide SEQ ID NO: 23
# Description: as §1
# [7] = biological target: T7, IsaA oligopeptide SEQ ID NO: 24
# Description: as §1
# [8] = biological target: T8, IsaA oligopeptide SEQ ID NO: 25
# Description: as §1
# [9] = biological target: T9, IsaA oligopeptide SEQ ID NO: 26
# Description: as §1
# [10] = biological target: T10, IsaA oligopeptide SEQ ID NO: 32
# Description: as §1
# [11] = biological target: T11, IsaA oligopeptide SEQ ID NO: 34
# Description: as §1
# [12] = biological target: T12, IsaA oligopeptide SEQ ID NO: 38
# Description: as §1
# [13] = biological target: T13, IsaA oligopeptide SEQ ID NO: 39
# Description: as §1
# [14] = biological target: T14, IsaA oligopeptide SEQ ID NO: 42
# Description: as §1
# [15] = biological target: T15, IsaA oligopeptide SEQ ID NO: 43
# Description: as §1
# [16] = biological target: T16, IsaA oligopeptide SEQ ID NO: 44
# Description: as §1
# [17] = biological target: T17, IsaA oligopeptide SEQ ID NO: 47
# Description: as §1
# [18] = biological target: T18, IsaA oligopeptide SEQ ID NO: 48
# Description: as §1
# [19] = biological target: T19, IsaA oligopeptide SEQ ID NO: 50
# Description: as §1
# [20] = biological target: T20, IsaA oligopeptide SEQ ID NO: 51
# Description: as §1
# [21] = biological target: T21, IsaA oligopeptide SEQ ID NO: 53
# Description: as §1
# [22] = biological target: T22, IsaA oligopeptide SEQ ID NO: 54
# Description: as §1
# [23] = biological target: T23, IsaA oligopeptide SEQ ID NO: 58
# Description: as §1
# [24] = biological target: T24, IsaA oligopeptide SEQ ID NO: 59
# Description: as §1
# [25] = biological target: T25, IsaA oligopeptide SEQ ID NO: 62
# Description: as §1
# [26] = biological target: T26, IsaA oligopeptide SEQ ID NO: 63
# Description: as §1
# [27] = biological target: T27, IsaA oligopeptide SEQ ID NO: 64
# Description: as §1
# [28] = biological target: T28, IsaA oligopeptide SEQ ID NO: 11
# Description: as §1
# [29] = biological target: T29, IsaA oligopeptide SEQ ID NO: 12
# Description: as §1
binder,measurement,setting,value
B1,Binding (fluorescence intensity),[1],11700
same,Binding (fluorescence intensity),[2],25300
same,Binding (fluorescence intensity),[3],31900
same,Binding (fluorescence intensity),[4],33300
same,Binding (fluorescence intensity),[5],21500
same,Binding (fluorescence intensity),[6],63900
same,Binding (fluorescence intensity),[7],9360
same,Binding (fluorescence intensity),[8],49300
same,Binding (fluorescence intensity),[9],51800
same,Binding (fluorescence intensity),[10],59500
same,Binding (fluorescence intensity),[11],29500
same,Binding (fluorescence intensity),[12],975
same,Binding (fluorescence intensity),[13],491
same,Binding (fluorescence intensity),[14],579
same,Binding (fluorescence intensity),[15],371
same,Binding (fluorescence intensity),[16],486
same,Binding (fluorescence intensity),[17],252
same,Binding (fluorescence intensity),[18],1170
same,Binding (fluorescence intensity),[19],192
same,Binding (fluorescence intensity),[20],139
same,Binding (fluorescence intensity),[21],577
same,Binding (fluorescence intensity),[22],570
same,Binding (fluorescence intensity),[23],1320
same,Binding (fluorescence intensity),[24],1400
same,Binding (fluorescence intensity),[25],551
same,Binding (fluorescence intensity),[26],645
same,Binding (fluorescence intensity),[27],379
same,Binding (fluorescence intensity),[28],101
same,Binding (fluorescence intensity),[29],680
